Target: SARS-CoV-2 RBD protein (Severe acute respiratory syndrome …, UniProt P0DTC2)
Experiment: ELISA

Binder	binding result
XMA09 (antibody, V domains shown) VH: QVQLVQSGAEVKKPGSSVKVSCKASGGTFSSFAISWVRQAPGQGLEWMGGIIPIYGTANYAQKFQGRVTITADESTSTAYMDLSSLRSEDTAVYYCARDGSSTYYPHNWFDPWGQGTLVTVSS VL: QSVLTQPPSVSGAPGQRVTISCTGSSSNIGSGYDVHWYQQLPGTAPKLLIYGNSNRPSGVPDRFSGSKSGTSASLAITGLQAEDEADYYCQSYDSSLSGVFGTGTKVTVL	binds
XMA01 (antibody, V domains shown) VH: EVQLVESGGGLVQPGGSLRLSCSASGFTFSSYAMHWVRQAPGKGLEYVSSISSNGGSTYYADSVKGRFTISRDNSKNTLYLQMSSLRVEDAAVYYCVKHYQQQLLWGGPDVWGQGTTVTVSS VL: DIQMTQSPVSLSASVGDRVTITCRASQSISTWLAWYQQKPGKAPKLLIYETSSLESGVPSRFSGSGSGTEFTLTISSLQPDDFATYYCQQFNSYPWTFGQGTKVEIK	binds
XMA04 (antibody, V domains shown) VH: EVQLVESGGGVVQPGRSLRLSCAASGFTFRTYAMHWVRQAPGKGLEWVAVMWNDGSNKYYADSVKGRFTISRDNSKNTLYLEMNSLRAEDTAVYYCAREGVAAAGSSSDAFDIWGQGTMVTVSS VL: DIQMTQSPSSLSASVGDRVTITCRASQSISNFLNWYQQKPGKAPKLLIYAASSLQSGVPSRFSGSGSGTDFTLTISSLQPEDFATYYCQQSYSTLYSFGQGTKLEIK	binds

Reference: publication PMC9080080 (Cell Reports, 2022)
